Laboratory results taken from the nanobody polyreactivity screen of Harvey et al. (2022).

Assay: yeast display, Sf9 membrane polyspecificity reagent, FACS + sequencing; frameworks hold sequencing errors
Summary of the method: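 A synthetic nanobody library was expressed on Saccharomyces cerevisiae BJ5465 by galactose induction for 36–48 hours. The library was stained for 1 hour at 4 °C with 10% biotinylated, detergent-solubilized Sf9 membrane reagent and enriched with streptavidin microbeads before FACS. Low and high (top ~1%) gates were set on anti-HA fluorescence for expression and streptavidin fluorescence for reagent binding, and each polyreactivity label reflects the gate of origin.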

Sequence	polyreactivity (PSR sort gate)
QVQLVESGGGLVQAGGSLRLSCAASGRTTWIYAMGWYRQAPGKERELVAVISKRGGNTYYADSVKGRFTISRDNAKNTVYLQMNSLKPADTAVYYCAAAGVYGSYDYWGQGTQVTVSS	high polyreactivity
QVQLVESGGGLVQAGGSLRLSCAASGRTVSFYDMGWYRQAPGKERELVAAINSGSSTYYADSVKGRCTISRDNANTTVYLQMNSLKPEDTAVYYCADEPYFWWQNEYWGQGTQVTVSS	high polyreactivity
QVQLVESGGGLVQAGGSLRLSCAASGRTYGVYAMGWYRQAPGKERELVATITLSGGRTYYAHSVKGRFTISRDNAKNTVYLEMNSLKPEDSAVYYCNARFSYYYGFRASRLDYWGQGTQVNVSS	high polyreactivity
QVQLVESGGGLVQAGGSLRLSCAASGRTYHGYAMGWYRQAPGKERELVARINWSDGRTYYADSVKGRFTISRDNAKNTVYLQMNSLKPEDTAVYYCAADKTVSYAPAWYYYWGQGTQVNVSS	low polyreactivity
QVQLVESGGGLVQAGGSLRLSCAASGRTYQANTMGWYRQAPVKEREFVAAISTSVGSTYYADSVKGRFTISRDNAKNTVYLQMKSLKPEDTALFYCAKASQSWGRDDYYYWGQGTQVTVSS	low polyreactivity
QVQLVESGGGLVQAGGSLRLSCAASGRTYVDYAMGWYRQAPGKEREFDAAITWSGGSTYYADSVKGRFTISRDYAKNTVYLQMTSLKPEDTEVYYCNRDTNVGVLNYKFYDGPERDYWGQGTQVTVSS	low polyreactivity
QVQLVESGGGLVQAGGSLRLSCAASGRTYVSYAMGWYRQAPGKERELVATITGSTGGTYYADSVKGRFTISRDHAKNTVYLQMNSLKPEDTAVYYCNKDYYYNPGNVASGYDYWGQGTQVTVSS	low polyreactivity
QVQLVESGGGLVQAGGSLRLSCAASGRTYWHNTMGWYRQAPGKERELVAAINGGGGSTYYADSVKGRFTISRDNAKNTVYLQMNSLKPEDTAVYYCSARQGVVKGGRGYGYWGQGTQVTVSS	high polyreactivity
QVQLVESGGGLVQAGGSLRLSCAASGRTYYHYTMGWYRQAPGKERDLVAAITSGGSTYYADSVKGRFTMSRDNAKITVYVQMNSLKPEDTAVYYCARVRPLYHYSRYDYWGQGTQVTVSS	high polyreactivity
QVQLVESGGGLVQAGGSLRLSCAASGRYFGYNAMGWYRQAPGKERELVAAITGSGGSTYYADSVKGRFTISLDNAKHTVYLQIISLKPEDTAVYYCAADRFYHSAEYDYWGQGTQVTVSS	low polyreactivity
QVQLVESGGGLVQAGGSLRLSCAASGSALYAMGWYRQAPGKEMELVADISRRGGSTFYADSVKGRFTISRDKAKNTVYLQMNSLKPEDTAVYYCAAEFITYHGDDHYYWGQGTQVTVSS	low polyreactivity
QVQLVESGGGLVQAGGSLRLSCAASGSFFHDYSMGWYRQAPGKERELVAAIRWSGGSTYYADSVKGRFTISRDNAKNTVYVQMNSLKPEDTAVYYCNAVTFGRDNVQLVKFGYWGQGTQVTVSS	low polyreactivity
QVQLVESGGGLVQAGGSLRLSCAASGSIARNAMGWYRQAPGKERELVATISSGGGTYYADSVKGRFTISRDNAKNTVYLQMHSLKPEDTAVYYCAADGWEVPWPAIWDSLYEYWGQGTQVTVSS	high polyreactivity
QVQLVESGGGLVQAGGSLRLSCAASGSICGRYAMGWYRQAPGKDRELVAAIRWRSGSTYYADSVKGRFTISRDNAKNSVYLHMNSLKPEDTAVYYCAVQRSYVGPRQYNYWGQGTQVTVSS	high polyreactivity
QVQLVESGGGLVQAGGSLRLSCAASGSICWIYAMGWYRQAPGKERELVAAINVGGGSTYYADSVKGRFTISRDNAKNTVYLQMNSLKPEDTAVYYCAKGYQSPYKSQGYEYDYWGQGTQVTVSS	low polyreactivity
QVQLVESGGGLVQAGGSLRLSCAASGSIDNIYAMGWYRQAPGKERELVATITGIADSTYYADSVKGRFTISRDNAKNTVFLQMNSLKPEDTAVYYCAADKYVAEYDYWGQGTQVTVSS	low polyreactivity
QVQLVESGGGLVQAGGSLRLSCAASGSIFAAYAMGWYRQAPGKERELVAAISDRGGSTYYADSVKGRFTISRDNAKNTVYLQMNSLKPEDTAVYYCATSVYDVRGGPFYYWGQGTQVTVSS	high polyreactivity
QVQLVESGGGLVQAGGSLRLSCAASGSIFADNAMGWYRQAPGKERELVAAITRGGSTYYADSVKGRFTISRDNAKNTVYLQMNSLKPEDTAVYYCAAGTTTYSVNEVPVREGYDYWGQGTQVTVSS	low polyreactivity
QVQLVESGGGLVQAGGSLRLSCAASGSIFADYAMGWYRQAPGKERELVAAISYNGDSTYYADSVKGRFTISRDNAKNTVYLQMNSLKPEDTAVYYCNAAARRYTSVFYTSGYTFDYWGQGTQVTVSS	low polyreactivity
QVQLVESGGGLVQAGGSLRLSCAASGSIFADYAMGWYRQAPGKERELVAAITGSGGRTYYADSVKGRFTISRDNAKNTVYLQMNSLKPEDTAVYYCAAEGTTWYYDMDYWGQGTQVTVSS	low polyreactivity
QVQLVESGGGLVQAGGSLRLSCAASGSIFADYAMGWYRQAPGKERELVAVISRRGGTTYYADSVKGRFTISRDNAKNTVYLQMNSLKTEDTAVYYCAARRSFNEYDYWGQGSQVTVSS	high polyreactivity
QVQLVESGGGLVQAGGSLRLSCAASGSIFADYTMGCYRQAPGKERELVAAITGGGGRTYYADSVKGRFTISRDNAKNTVYLQMNSLKPEDTAVYYCAADFHDDHTSFDYWGQGTQVTVSS	low polyreactivity

Sequence	polyreactivity (PSR sort gate)
QVQLVESGGGLVQAGGSLRLSCAASGSIFADYTMGWYRQAPGKERELVAAISSDDSTYYADSVKGRFTISRDNAKNTVYLQMNSLKPEDTAVYYCNADGSIGPEEYWGQGTQVTVSS	low polyreactivity
QVQLVESGGGLVQAGGSLRLSCAASGSIFADYVMGWYRQAPGKERELVAAITRRGRTYYADSVKGRFTISRDNAKNTVYLQMNSLIPEDTAVYYCAKVASGKIDSWGQGTQVTVSS	low polyreactivity
QVQLVESGGGLVQAGGSLRLSCAASGSIFAFYAMGWYRQAPGKERELVAVISVSDGSTYYADSVKGRFTISRDNAKNTVYLQMKSLKAEDTAVYYCAATPRGSYGYYYWGQGTQVTVSS	low polyreactivity
QVQLVESGGGLVQAGGSLRLSCAASGSIFAGNAMGWYRQAPGRERELVAGITFGDDSTYYADSVKGRFTISRDNAKNTVYLQMNSLKPEDTAVYYCATDMHPYNYYFYHYWVDAAYDYWGQGTQVTVSS	low polyreactivity
QVQLVESGGGLVQAGGSLRLSCAASGSIFAGNTMGWYRQAPGKERELVARMTRAGSTYYADSVKGRFTITRDNAKNTVYLQMNSLKPEDTAVYYCASGPTGSLYRYYYWGQGSQVTVSS	high polyreactivity
QVQLVESGGGLVQAGGSLRLSCAASGSIFAGYAMGWYRQAPGKERELVATITSGGSTNYADSVKGRFTISRDNAKNTVYFHMNSLKPEVTAVYYCAADVEDSIPSSYTGGEYDYWGQCTQVTVSS	low polyreactivity
QVQLVESGGGLVQAGGSLRLSCAASGSIFAINAMGWYRQAPGKERELVARISWSGGRTYYADSVKVRFTISRDNAKNTVYLQMNSLKPEDTAVYYCAKRYYKSLNRDEFDSWGQGTQGTVSS	high polyreactivity
QVQLVESGGGLVQAGGSLRLSCAASGSIFAKNAMGWYRQAPGKERELVAAITFIGGDTYYADSVKGRFTISRDNAKNTVYLQMNSLKPEDTAVFYCNRALLVTSIYPYLFGSGWYDYWGQGTQVTVSS	low polyreactivity
QVQLVESGGGLVQAGGSLRLSCAASGSIFAKNAMGWYRQAPGKERELVAGIDFSGGSTYYADSVKGRFTLSRDNAKNTVYLQMNSLKPEDTAVYYCAADWAYKYELDYWGQGTQLTVSS	low polyreactivity
QVQLVESGGGLVQAGGSLRLSCAASGSIFAKYAMGWYRQAPGKERELVAAISSGGSTYYADSVKGRFTISRDNAKNTVYLQMNSLKPEDTAVYYCNKPYGKETRYTFKVWYEYNYWGQGTQVTVSS	low polyreactivity
QVQLVESGGGLVQAGGSLRLSCAASGSIFANAMGWYRQAPGKEREVVAAISFSGGRTFYADSVKGRFTISRDNAKNTVYLQMNSLKPEDTAVYYCAKGKKSSRSGIYNYWGQGTQVTVSS	high polyreactivity
QVQLVESGGGLVQAGGSLRLSCAASGSIFANNGMGWYRQAPGKERELVARISKRGGSTYYADSVKGRFTFSRDNAKNTVYLQMNSLKPEDTAVYYCNVRSWWGYTGPYDYWGQGTQVTVSS	high polyreactivity
QVQLVESGGGLVQAGGSLRLSCAASGSIFANYAMGWYRQAPGKERELVAAISRGGGTTYYADSVKGRFTISRDNAKNTVYLQMNSLKPEDTAVYYCAAARRYATQFHYDSWGQGTQVTVSS	high polyreactivity
QVQLVESGGGLVQAGGSLRLSCAASGSIFAPYAMGRYRQAPGKERELVAAISTTGGTTYYADSVKGRFTISRDNAKNTVYLQMNSLKPEDTAVYYCAADWSESFGKGGDYWGQGTQVTVSS	low polyreactivity
QVQLVESGGGLVQAGGSLRLSCAASGSIFAPYAMGWYRQAPGKERELVAAISSSGGSTYYADSVKGRFTISRDNAKNTLYLQMNSLKPEDTAVYYCAAETYHGLYDYWGQGTQVTVSS	low polyreactivity
QVQLVESGGGLVQAGGSLRLSCAASGSIFAQYTMGWYRQAPGKERELVAVISINGVSTYYADSVKGRFTISRDNAKNTVYLQMNSLKPEDTAVYYCNAGISPYEALGYWGQGTQVTVSS	low polyreactivity
QVQLVESGGGLVQAGGSLRLSCAASGSIFARNAMGWYRPAPGKERELVAVITTGGRTYYADSVKGRFTISRDNAKNTVYLQMNSLKPEDTAVYYCATRVIYGHSGGYWGQGTQVTVSS	high polyreactivity
QVQLVESGGGLVQAGGSLRLSCAASGSIFARNAMGWYRQAPGKERELVAAITWGGGITYYADSVKGRFTISRDNAKNTVYLQMNSLKPEDTAVYYCATDGYSYFTDRLDYWGQGTQVTVSS	low polyreactivity
QVQLVESGGGLVQAGGSLRLSCAASGSIFARNAMGWYRQAPGKERELVASITWSGASTYYADSVKGRFTISRDNAKNTVYLQMNSLKPADTSFYYSAATDQNLSLDYSSYEYRGQGTQVTVSS	low polyreactivity
QVQLVESGGGLVQAGGSLRLSCAASGSIFARNAMGWYRQAPGKERELVASITWSGASTYYADSVKGRFTISRDNAKNTVYLQMNSLKPEDTAVYYCAATDQKLSLDYSSYEYWGQGTQVTVSS	low polyreactivity
QVQLVESGGGLVQAGGSLRLSCAASGSIFARYAMGWDRQAPGKERELVAAISSRGGSTYYADSVKGRFTISRDNAKNTVYLQMNSLKPADTAVYYCNKGYLVRQGDYWGQGTQVTVSS	high polyreactivity
